# According to patent publication US20070185311A1 (EPIX MEDICAL INC A DELAWARE, published 2007):
# Starred links: 1 amine or outer side, 2 acyl side, 3 side chain; linkers in the order of their positions; H or OH if unused. Positions of bridges follow the written chain, without caps; N, C: chain ends. Non-standard residues stand in square brackets, D forms with d. Primed or numbered codes have the meaning given here. No end group written: not given here. Tyr(3-NO2) = N[C@@H](Cc1ccc(O)c([N+](=O)[O-])c1)C(=O)O; Phe(4-OMe) = COc1ccc(C[C@H](N[*:1])C(=O)[*:2])cc1; Phe(3-CF3) = N[C@@H](Cc1cccc(C(F)(F)F)c1)C(=O)O; Phe(4-CF3) = N[C@@H](Cc1ccc(C(F)(F)F)cc1)C(=O)O; Bpa = N[C@@H](Cc1ccc(C(=O)c2ccccc2)cc1)C(=O)O; Phe(4-CH2NH2) = NCc1ccc(C[C@H](N)C(=O)O)cc1; Tyr(3-Cl) = N[C@@H](Cc1ccc(O)c(Cl)c1)C(=O)O; Bip = N[C@@H](Cc1ccc(-c2ccccc2)cc1)C(=O)O; Tyr(3-I) = N[C@@H](Cc1ccc(O)c(I)c1)C(=O)O; Phe(3-OMe) = COc1cccc(C[C@H](N)C(=O)O)c1; Phe(4-Br) = N[C@@H](Cc1ccc(Br)cc1)C(=O)O; Phe(4-CN) = N#Cc1ccc(C[C@H](N)C(=O)O)cc1; Phe(4-NH2) = Nc1ccc(C[C@H](N)C(=O)O)cc1; Phe(2-OMe) = COc1ccccc1C[C@H](N)C(=O)O; Phe(3-Me) = Cc1cccc(C[C@H](N)C(=O)O)c1; Phe(4-F) = N[C@@H](Cc1ccc(F)cc1)C(=O)O; Phe(4-I) = N[C@@H](Cc1ccc(I)cc1)C(=O)O; Phe(4-Me) = Cc1ccc(C[C@H](N)C(=O)O)cc1; 1Nal = N[C@@H](Cc1cccc2ccccc12)C(=O)O; Hyp = O=C(O)[C@@H]1C[C@@H](O)CN1; hPhe = N[C@@H](CCc1ccccc1)C(=O)O; 3Pal = N[C@@H](Cc1cccnc1)C(=O)O; 4Pal = N[C@@H](Cc1ccncc1)C(=O)O; Phe(4-Et)′ = not defined here; Tle = CC(C)(C)[C@H](N)C(=O)O; Tyr(2-F)′ = not defined here; Nle = CCCC[C@H](N)C(=O)O; MTyr = not defined here; nTyr = not defined here; Cmp = not defined here
# B1: L-P-C-D-Y-Y-G-T-C-MeL-Cmp (peptide)
# peptide: LPCDYYGTC[MeL][Cmp]
# modifications: cysteine pairing not given here; reading uncertain; also: printed as L-P-C-D-Y-Y-G-T-C-MeL-Cmp
# Biological target: DD(E) fragment of fibrin
# Test: affinity to DD(E) fragment of fibrin
row,Kd [nM],Binder
1,< 10000,LPCDYYGTCXD (Bip at 10; dD at 11) [L-P-C-D-Y-Y-G-T-C-Bip-dD]
2,< 100,[Phe(3-CF3)]HC[Hyp][Tyr(3-I)]DLCHI (disulfide 3-8 (inferred)) [F(3-CF3)-H-C-Hyp-Y(3-I)-D-L-C-H-I]
3,< 100,FHC[Hyp][Tyr(3-I)]DLCH[Phe(3-CF3)] (disulfide 3-8 (inferred)) [F-H-C-Hyp-Y(3-I)-D-L-C-H-F(3-CF3)]
4,< 100,FHC[Hyp][Tyr(3-I)]DLCH[Tle] (disulfide 3-8 (inferred)) [F-H-C-Hyp-Y(3-I)-D-L-C-H-Tle]
5,< 100,WEC[Hyp][Tyr(3-Cl)]GLCWIQ (disulfide 3-8 (inferred)) [W-E-C-Hyp-Y(3-Cl)-G-L-C-W-I-Q]
6,< 10000,LPCDYYGTCXD (Bip at 10) [L-P-C-D-Y-Y-G-T-C-Bip-D]
7,< 100,FHC[Hyp][Tyr(3-I)]DLCH[Nle] (disulfide 3-8 (inferred); not fully specified) [F-H-C-Hyp-Y(3-I)-D-L-C-H-Nle]
8,< 100,[Phe(3-Me)]HC[Hyp][Tyr(3-I)]DLCHI (disulfide 3-8 (inferred)) [F(3-Me)-H-C-Hyp-Y(3-I)-D-L-C-H-I]
9,< 100,FHC[Hyp][Tyr(3-I)]DLCH[Bpa] (disulfide 3-8 (inferred)) [F-H-C-Hyp-Y(3-I)-D-L-C-H-Bpa]
10,< 100,[Phe(34-F2)]HC[Hyp][Tyr(3-I)]DLCHI (disulfide 3-8 (inferred)) [F(34-F2)-H-C-Hyp-Y(3-I)-D-L-C-H-I]
11,< 100,[Phe(2-OMe)]HC[Hyp][Tyr(3-I)]DLCHI (disulfide 3-8 (inferred)) [F(2-OMe)-H-C-Hyp-Y(3-I)-D-L-C-H-I]
12,< 100,[Phe(4-OMe)]HC[Hyp][Tyr(3-Cl)]DLCHIL (disulfide 3-8 (inferred)) [F(4-OMe)-H-C-Hyp-Y(3-Cl)-D-L-C-H-I-L]
13,< 100,FHC[Hyp][Tyr(3-I)]DLCH[hPhe] (disulfide 3-8 (inferred)) [F-H-C-Hyp-Y(3-I)-D-L-C-H-Hfe]
14,< 100,[Phe(4-OMe)]HC[Hyp][Tyr(3-I)]DLCH[Bpa] (disulfide 3-8 (inferred)) [F(4-OMe)-H-C-Hyp-Y(3-I)-D-L-C-H-Bpa]
15,< 100,FHC[Hyp][Tyr(3-I)]DLC[3Pal]I (disulfide 3-8 (inferred)) [F-H-C-Hyp-Y(3-I)-D-L-C-3Pal-I]
16,< 100,[Tyr(3-NO2)]HC[Hyp][Tyr(3-I)]DLCHI (disulfide 3-8 (inferred)) [Y(3-NO2)-H-C-Hyp-Y(3-I)-D-L-C-H-I]
17,< 100,[hPhe]HC[Hyp][Tyr(3-I)]DLCHI (disulfide 3-8 (inferred)) [Hfe-H-C-Hyp-Y(3-I)-D-L-C-H-I]
18,< 100,[Phe(4-CH2NH2)]HC[Hyp][Tyr(3-I)]DLCHI (disulfide 3-8 (inferred)) [F(4-CH2NH2)-H-C-Hyp-Y(3-I)-D-L-C-H-I]
19,< 100,[MTyr]HC[Hyp][Tyr(3-I)]DLCHI (disulfide 3-8 (inferred); reading uncertain) [MTyr-H-C-Hyp-Y(3-I)-D-L-C-H-I]
20,< 100,FHC[Hyp][Tyr(3-I)]DLCH[Phe(4-CF3)] (disulfide 3-8 (inferred)) [F-H-C-Hyp-Y(3-I)-D-L-C-H-F(4-CF3)]
21,< 100,[Phe(4-OMe)]HC[Hyp][Tyr(3-I)]DLCHI (disulfide 3-8 (inferred)) [F(4-OMe)-H-C-Hyp-Y(3-I)-D-L-C-H-I]
22,< 100,[Phe(4-CF3)]HC[Hyp][Tyr(3-I)]DLCHI (disulfide 3-8 (inferred)) [F(4-CF3)-H-C-Hyp-Y(3-I)-D-L-C-H-I]
23,< 100,[Phe(4-OMe)]HC[Hyp][Tyr(3-Cl)]DLCHI (disulfide 3-8 (inferred)) [F(4-OMe)-H-C-Hyp-Y(3-Cl)-D-L-C-H-I]
24,< 100,[Phe(4-CN)]HC[Hyp][Tyr(3-I)]DLCHI (disulfide 3-8 (inferred)) [F(4-CN)-H-C-Hyp-Y(3-I)-D-L-C-H-I]
25,< 100,F[His(Bzl)]C[Hyp][Tyr(3-Cl)]DLCHIL (disulfide 3-8 (inferred)) [F-H(Bzl)-C-Hyp-Y(3-Cl)-D-L-C-H-I-L]
26,< 100,[Tyr(2-F)′]HC[Hyp][Tyr(3-I)]DLCHI (disulfide 3-8 (inferred)) [Y(2-F)-H-C-Hyp-Y(3-I)-D-L-C-H-I]

row,Kd [nM],Binder
1,< 100,[Phe(4-F)]HC[Hyp][Tyr(3-I)]DLCHI (disulfide 3-8 (inferred)) [F(4-F)-H-C-Hyp-Y(3-I)-D-L-C-H-I]
2,< 10000,LPCDYYGTCXD (Me-Bip at 10) [L-P-C-D-Y-Y-G-T-C-Me-Bip-D]
3,< 100,[Phe(4-OMe)][His(Bzl)]C[Hyp][Tyr(3-Cl)]DLCHI (disulfide 3-8 (inferred)) [F(4-OMe)-H(Bzl)-C-Hyp-Y(3-Cl)-D-L-C-H-I]
4,< 100,FHC[Hyp][Tyr(3-I)]DLCH[Phe(4-OMe)] (disulfide 3-8 (inferred)) [F-H-C-Hyp-Y(3-I)-D-L-C-H-F(4-OMe)]
5,< 100,[nTyr]HC[Hyp][Tyr(3-I)]DLCHI (disulfide 3-8 (inferred); reading uncertain) [nTyr-H-C-Hyp-Y(3-I)-D-L-C-H-I]
6,< 100,FHC[Hyp][Tyr(3-Cl)]DLCHIL (disulfide 3-8 (inferred)) [F-H-C-Hyp-Y(3-Cl)-D-L-C-H-I-L]
7,< 100,[Phe(4-Me)]HC[Hyp][Tyr(3-I)]DLCHI (disulfide 3-8 (inferred)) [F(4-Me)-H-C-Hyp-Y(3-I)-D-L-C-H-I]
8,< 10000,B1
9,< 100,[Phe(4-OMe)][His(Bzl)]C[Hyp][Tyr(3-I)]DLCHI (disulfide 3-8 (inferred)) [F(4-OMe)-H(Bzl)-C-Hyp-Y(3-I)-D-L-C-H-I]
10,< 100,FHC[Hyp][Tyr(3-I)]DLCHI (disulfide 3-8 (inferred)) [F-H-C-Hyp-Y(3-I)-D-L-C-H-I]
11,< 100,FHC[Hyp][Tyr(3-I)]DLCHIL (disulfide 3-8 (inferred)) [F-H-C-Hyp-Y(3-I)-D-L-C-H-I-L]
12,< 100,[4Pal]HC[Hyp][Tyr(3-I)]DLCHI (disulfide 3-8 (inferred)) [4Pal-H-C-Hyp-Y(3-I)-D-L-C-H-I]
13,< 100,[Phe(4-OMe)]HC[Hyp][Tyr(3-Cl)]DLCH[Bpa]L (disulfide 3-8 (inferred)) [F(4-OMe)-H-C-Hyp-Y(3-Cl)-D-L-C-H-Bpa-L]
14,< 100,[Phe(4-OMe)][His(Bzl)]C[Hyp][Tyr(3-I)]DLCH[Bpa] (disulfide 3-8 (inferred)) [F(4-OMe)-H(Bzl)-C-Hyp-Y(3-I)-D-L-C-H-Bpa]
15,< 100,[Phe(4-Br)]HC[Hyp][Tyr(3-I)]DLCHI (disulfide 3-8 (inferred)) [F(4-Br)-H-C-Hyp-Y(3-I)-D-L-C-H-I]
16,< 100,[Phe(4-NH2)]HC[Hyp][Tyr(3-I)]DLCHI (disulfide 3-8 (inferred)) [F(4-NH2)-H-C-Hyp-Y(3-I)-D-L-C-H-I]
17,< 100,[Phe(4-OMe)]HC[Hyp][Tyr(3-I)]DLCH[Bpa]L (disulfide 3-8 (inferred)) [F(4-OMe)-H-C-Hyp-Y(3-I)-D-L-C-H-Bpa-L]
18,< 100,FHC[Hyp][Tyr(3-I)]DLCH[Bip] (disulfide 3-8 (inferred)) [F-H-C-Hyp-Y(3-I)-D-L-C-H-Bip]
19,< 100,[Tyr(3-I)]HC[Hyp][Tyr(3-I)]DLCHI (disulfide 3-8 (inferred)) [Y(3-I)-H-C-Hyp-Y(3-I)-D-L-C-H-I]
20,< 100,[Phe(3-OMe)]HC[Hyp][Tyr(3-I)]DLCHI (disulfide 3-8 (inferred)) [F(3-OMe)-H-C-Hyp-Y(3-I)-D-L-C-H-I]
21,< 100,FHC[Hyp][Tyr(3-Cl)]DLCHI (disulfide 3-8 (inferred)) [F-H-C-Hyp-Y(3-Cl)-D-L-C-H-I]
22,< 100,FHC[Hyp][Tyr(3-I)]DLCH[Phe(4-Et)′] (disulfide 3-8 (inferred)) [F-H-C-Hyp-Y(3-I)-D-L-C-H-F(4-Et)]
23,< 100,[1Nal]HC[Hyp][Tyr(3-I)]DLCHI (disulfide 3-8 (inferred)) [1Nal-H-C-Hyp-Y(3-I)-D-L-C-H-I]
24,< 100,[Phe(4-I)]HC[Hyp][Tyr(3-I)]DLCHI (disulfide 3-8 (inferred)) [F(4-I)-H-C-Hyp-Y(3-I)-D-L-C-H-I]
25,< 100,[DopaMe2]HC[Hyp][Tyr(3-I)]DLCHI (disulfide 3-8 (inferred)) [DopaMe2-H-C-Hyp-Y(3-I)-D-L-C-H-I]
26,< 100,[3Pal]HC[Hyp][Tyr(3-I)]DLCHI (disulfide 3-8 (inferred)) [3Pal-H-C-Hyp-Y(3-I)-D-L-C-H-I]
